Data on 22 molecules can be found in US20200347135A1 (published 2020).

Test [1] deals with T1, human PD-1 expressed on cells (UniProt Q15116 25-288). In words: FACS ligand competition (PD-L1 Fc).
The target of test [2] is T1, human PD-1 expressed on cells. In words: FACS binding.
Test [3] shares this target. The test can be described thus: FACS binding. The source holds these as a separate data set.
Test [4] addresses recombinant PD-1 extracellular domain (ECD) protein (UniProt Q15116 25-170). In words: SPR.
Test [5] deals with T1, human PD-1 expressed on cells. In words: FACS binding. The source holds these as a separate data set.
Test [6] has the same target. In words: FACS competition with PD-L1 Fc.

Changes are numbered by the printed parent chain. Read-outs that look alike come from different tables or passages of the source.

Chain of recombinant PD-1 extracellular domain (ECD) protein (Q15116 25-170): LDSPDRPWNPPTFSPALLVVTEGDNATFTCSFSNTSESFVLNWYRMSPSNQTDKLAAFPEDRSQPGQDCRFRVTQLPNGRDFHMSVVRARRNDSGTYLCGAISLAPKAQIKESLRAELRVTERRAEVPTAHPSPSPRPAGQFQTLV
T1 sequence (Q15116 25-288): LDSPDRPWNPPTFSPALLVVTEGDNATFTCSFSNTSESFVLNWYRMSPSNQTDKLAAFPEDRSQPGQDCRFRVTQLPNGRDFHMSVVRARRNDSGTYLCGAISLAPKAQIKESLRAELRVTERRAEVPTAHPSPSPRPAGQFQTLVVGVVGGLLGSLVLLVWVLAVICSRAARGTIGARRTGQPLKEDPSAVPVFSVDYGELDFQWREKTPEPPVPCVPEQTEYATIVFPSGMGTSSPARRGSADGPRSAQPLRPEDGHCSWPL

B1: AS24984_HCAb (antibody, V domains shown)
VH: QVHLMESGGGSVPSGGSLRLSCAVSGSGYSYSRGCFAWFQQRPGKEREGVAIINMDGHTRYSDSVQGRFIISQDKAKNTLHLQMNTLRPDDTAMYYCAYDRSQCYVLSDRLRLPGTFSDWGQGTQVTVSS
Turning to B1, the half-inhibitory concentration (IC50) in test [1] amounted to 4.59 nM. The same molecule registered an EC50 in test [2] of 7.22 nM.

B2: AS25067_HCAb (antibody, V domains shown)
VH: QVHLMESGGGAVQTGGSLRLSCAVSGISISPDCMGWFRQAPGKKREAVTTIFANTGSARYGDSVKGRFTSSQGNAKNTLYLQMDSVKLDDTGTYYCAARFTGGDCFDHQPLAWRFWGQGTQVTVSS
B2 displayed a half-maximal inhibitory concentration (IC50) in test [1] of 3.51 nM. Further, in test [2], the EC50 came to 4.96 nM.

B3: AS25071_HCAb (antibody, V domains shown)
VH: EVQLAESGGGSVQSGGSLRLSCAVSGSGYSYSRGCFAWFQQRPGKEREGVAIINSDGHTAYSDSVQGRFIISQDKAKNTLYLQMNSLKPDDTAMYYCAYDRSQCYVLRDRLRLPDTFTDWGQGTQVTVSS
Turning to B3, the IC50 in test [1] amounted to 2.41 nM. The same molecule came in with an EC50 in test [2] of 4.74 nM.

B4: AS25164_HCAb (antibody, V domains shown)
VH: B3 VH with A5V, S32N, A60T, S62G, Y81D, S102N
B4 returned an IC50 in test [1] of 3.25 nM. For the same molecule, in test [2], a half-maximal effect (EC50) was put at 6.15 nM.

B5: AS25156_HCAb (antibody, V domains shown)
VH: B3 VH with A5V, A60R, R101C
Molecule B5 came in with an IC50 in test [1] of 6.04 nM. Moreover, the EC50 in test [3] and in test [2] was 9.18 nM each time.

B6: AS25149_HCAb (antibody, V domains shown)
VH: B3 VH with E1Q, A5V, R19K, A60R, T92A, S102N, R108L, D115G, T118S
For B6, in test [1], the IC50 was determined as 8 nM. In test [2], this molecule returned an EC50 of 10.7 nM.

B7: AS15892 sdAb (VHH)
VHH: QIQLVESGGGSVQAGGSLRLSCAASGFTDSSYCGAWFRQVPGKEREGVAIIDRYGGTMYKDSVKGRFTISKDTAKNILYLQMNSLKLEDTAMYYCAAAEYRGSSCDAESGYWGQGTQVTVSS
Consider B7, for which, in test [4], the Kd was 2.67 nM.

B8: AS15883 sdAb (VHH)
VHH: B7 VHH with I2V, Q3H, V5M, R19T, G26V, S31N, G34M, E99G, E108D
Consider B8, for which the Kd in test [4] came to 2.78 nM.

B9: AS15881 sdAb (VHH)
VHH: B7 VHH with I2V
On to B9, for which the dissociation constant (Kd) in test [4] turned out to be 2.31 nM.

B10: AS06962 sdAb (VHH)
VHH: QVHLVDSGGGLVQPGGSLRLSCAASGSITSRNTMGWYRQVPGKQRELVALIATFVTHYADSVKGRFTISRDNARKMVFLEMNSLQPEDTGAYYCYVDVSPYWGRGTQVTVSS
B10: the Kd in test [4] is 0.454 nM. For the same molecule, the EC50 in test [5] came to 79.2 nM. The same molecule yielded a concentration for half-maximal inhibition (IC50) in test [6] of 193 nM.

B11: AS15872 sdAb (VHH)
VHH: QVQLVESGGGLVQPGGSLTLSCAASGFTFSTAAMSWVRQVPEEGLEWVASIDSSGSRTYYAGSVKGRFTISRDNAKNTLYLQLNSLKAEDTAMYYCAKDHMSWLPRGQGTQVTVSS
With B11, in test [4], the equilibrium dissociation constant (Kd) was 14.5 nM.

B12: AS25115_HCAb (antibody, V domains shown)
VH: QVHLVESGGASVQAGGSLRLSCAATAYTASNYCMGWFRQSPGKEREAVASINDDGVTSYADSVKGRFTISQDSAKKTLYLQMNRLKPEDTAMYYCAATPDGYCYAERLSRWRYEFWGQGTQVTVSS
B12: in test [1], the IC50 was 2.15 nM. It took 4.06 nM to reach a half-maximal effect in test [2] (EC50).

B13: AS25435_HCAb (antibody, V domains shown)
VH: B12 VH with H3Q, A10G, N31F, S40A, S58M, R66Q, K75T, D100E, R110T, E114T
The molecule B13 registered an IC50 in test [1] of 2.7 nM. This molecule also came in with an EC50 in test [2] of 4.91 nM.

B14: AS15899 sdAb (VHH)
VHH: QVQLVESGGGSVQAGGSLRLSCAASGYTAGSLCMGWFRQAPGKEREGVAAIYTGGGSTYYADSVKGRFTISQDNAKNTVYLQMNSLKPEDTAQYYCGAGSREDYCDRGYIYDHWGQGTQVTVSS
Regarding B14, the dissociation constant Kd in test [4] stood at 3.22 nM.

B15: AS25396_HCAb (antibody, V domains shown)
VH: QVHLMESGGGSVQAGGSLRLSCVVSGISISPDCMGWFRQAPGKKREAVATIFTNTRRTRYGDSVKGRVTSSQGNAKNTLYLKMDNLRHDDTATYYCAARYTGGDCFNLDPLSWRFWGQGTQVTVSS
With B15, in test [1], the IC50 turned out to be 1.34 nM. This molecule also showed an EC50 in test [2] of 3.84 nM.

B16: AS25222_HCAb (antibody, V domains shown)
VH: QIQLVESGGGSVQAGGSLRLSCAVTGISISPDCMGWFRQAPGKKREAVATIFTNTASTRYGDSVKGRFTSSQGNGKNTLYLQMDSLNVDDTATYYCAARYTGGNCFNLEPLAWHFWGQGTQVTVSS
Take B16: the half-inhibitory concentration (IC50) in test [1] was 1.66 nM. Moreover, the concentration giving a half-maximal response (EC50) in test [2] was determined as 4.59 nM.

B17: AS25457_HCAb (antibody, V domains shown)
VH: B16 VH with I2V, T25S, A56R, G75A, N87K, V88L, N104D, L111V, H114R
B17: the IC50 in test [1] was 2.44 nM. The EC50 in test [2] amounted to 4.04 nM.

B18: A31543 sdAb (VHH)
VHH: QVQLVESGGGKVQPGGSLRLSCAASGGTLDYYAIGWFRQAPGKEREAVSCISSSDGSTYYADSVKGRFTISRDNAKNTVYLQMNSLKPGDTAVYHCATDRACGSSWLGAESWAQGTQVTVSS
Take B18: the EC50 in test [5] stood at 41.2 nM. Further, the IC50 in test [6] came to 21.1 nM.

B19: AS25064_HCAb (antibody, V domains shown)
VH: QVQLVESGGGSVQAGGSLRLTCAATGYSWRPDCMGWYRQAAEKEREGVAVIDADGITSYADAAKGRFTISRDNNKITLYLQMLKPDDTGMYVCVVGWRVSSGGNCQFNDYWGQGTQVTVSS
Consider B19, for which the IC50 in test [1] was found to be 2.91 nM. Moreover, the EC50 in test [2] turned out to be 5.46 nM.

B20: AS25119_HCAb (antibody, V domains shown)
VH: B19 VH with S17P, K75N, V95I
In turn, B20 yielded an IC50 in test [1] of 1.57 nM. The concentration for a half-maximal effect (EC50) in test [2] is 3.29 nM.

B21: AS25117_HCAb (antibody, V domains shown)
VH: EVQLAESGGGSVQAGGSLRLSCVISGTSISPDCMGWFRQAPGKKREAVMSIFTNTGSTRYGDSVKGRFTSSQGNAKNTLYLQMDSLKLDDTATYYCAARYTGGDCFNLEPLAWRFWGQGTQVTVSS
In test [1], B21 displayed an IC50 of 2.06 nM. Moreover, the 50% effective concentration (EC50) in test [2] is 3.22 nM.

B22: AS25037_HCAb (antibody, V domains shown)
VH: EVQLAESGGGSVQAGGSLKLSCLASQWISSDCGMAWYRQAPGKERELVSRISSDDTTTYADSVKGRFTISQDSAKNTLYLQMNKLKTEDTGVYYCAAEAKSTITSLCYPLNYWGQGTQVTVSS
With B22, the IC50 in test [1] is 6.58 nM. In test [2], this molecule displayed an EC50 of 6.62 nM.
